Laboratory results as given in patent publication US20240010735A1 (EISAI R AND D MANAGEMENT, published 2024).

Experiments:
Test in all cases: ELISA: Fc-His proteins (1 nM) captured on anti-6-His antibody, antibody A 10 µg/mL with human IgG 100 µg/mL, HRP anti-mouse IgG, OD450 as % of mouse EphA4-Fc-His
[1] = target: T1, mouse EphB1 extracellular region-Fc-His protein (mouse; human, UniProt Q8CBF3 18-540)
T1 construct: extracellular domain; not shown: Fc region of human IgG1; histidine tag
T1 sequence (looked up): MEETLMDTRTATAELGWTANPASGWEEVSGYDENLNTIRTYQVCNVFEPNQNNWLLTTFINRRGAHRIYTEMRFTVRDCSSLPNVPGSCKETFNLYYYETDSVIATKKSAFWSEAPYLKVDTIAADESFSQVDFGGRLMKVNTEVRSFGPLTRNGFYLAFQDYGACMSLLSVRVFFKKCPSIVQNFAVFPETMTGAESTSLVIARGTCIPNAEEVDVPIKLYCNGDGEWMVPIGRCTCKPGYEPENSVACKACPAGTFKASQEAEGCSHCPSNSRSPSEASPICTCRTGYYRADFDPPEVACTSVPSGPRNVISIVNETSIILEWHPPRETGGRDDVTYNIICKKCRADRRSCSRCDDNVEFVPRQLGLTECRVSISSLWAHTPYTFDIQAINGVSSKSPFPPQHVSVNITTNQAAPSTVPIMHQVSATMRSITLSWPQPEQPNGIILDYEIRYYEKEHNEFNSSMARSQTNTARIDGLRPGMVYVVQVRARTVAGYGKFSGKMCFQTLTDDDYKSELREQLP
Procedure: (§1) Rabbit anti-6-His antibodies (Bethyl Laboratories) were coated onto the wells of a 96-well plate (Nunc). After incubating at 4° C. overnight, the wells were blocked at room temperature for 1 hour by 1% Block Ace (DS Pharma Biomedical). After washing 3 times with 0.05% Tween 20/PBS (Thermo […]), each Eph receptor of mouse extracellular region-Fc-His protein (final concentration 1 nM) was seeded into each well, and incubated at room temperature for 1 hour. After washing 3 times, human IgG solution (100 μg/mL, Sigma) and antibody A (10 μg/mL) were supplemented to the wells, and incubated at room temperature for 1 hour. Horseradish peroxidase-labeled donkey anti-mouse IgG antibody (Jackson ImmunoResearch Laboratories) was added, and incubated at room temperature for 1 hour. After washing 3 times, TMBZ (3,3′,5,5′-tetramethylbenzidine, Sigma) solution was added to the wells, and upon confirmation of modest coloring, an equal amount of quenching solution (1 N H₂SO₄, Wako Pure Chemicals) was added to the wells, and absorbance at 450 nm was read by a microplate reader (PerkinElmer).

[2] = target: T2, mouse EphA10 extracellular region-Fc-His protein (mouse; human, UniProt Q8BYG9 23-565)
T2 construct: extracellular domain; not shown: Fc region of human IgG1; histidine tag
T2 sequence (looked up): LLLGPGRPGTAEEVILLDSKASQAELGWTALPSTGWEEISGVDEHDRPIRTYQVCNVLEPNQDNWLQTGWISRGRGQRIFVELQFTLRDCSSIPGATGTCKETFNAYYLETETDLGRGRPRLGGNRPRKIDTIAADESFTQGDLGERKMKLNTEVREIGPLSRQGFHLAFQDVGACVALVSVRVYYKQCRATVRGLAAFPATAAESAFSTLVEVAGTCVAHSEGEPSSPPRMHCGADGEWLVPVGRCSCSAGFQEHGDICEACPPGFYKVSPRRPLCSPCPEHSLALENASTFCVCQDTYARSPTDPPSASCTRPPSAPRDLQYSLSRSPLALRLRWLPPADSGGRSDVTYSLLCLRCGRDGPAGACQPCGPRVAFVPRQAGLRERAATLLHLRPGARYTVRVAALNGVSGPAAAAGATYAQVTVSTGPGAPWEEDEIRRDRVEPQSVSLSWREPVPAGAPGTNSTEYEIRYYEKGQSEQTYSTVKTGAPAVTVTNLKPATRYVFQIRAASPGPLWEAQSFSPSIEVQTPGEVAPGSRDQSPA
Procedure: as §1

[3] = target: T3, mouse EphA8 extracellular region-Fc-His protein (mouse; human, UniProt O09127 27-541)
T3 construct: extracellular domain; not shown: Fc region of human IgG1; histidine tag
T3 sequence (looked up): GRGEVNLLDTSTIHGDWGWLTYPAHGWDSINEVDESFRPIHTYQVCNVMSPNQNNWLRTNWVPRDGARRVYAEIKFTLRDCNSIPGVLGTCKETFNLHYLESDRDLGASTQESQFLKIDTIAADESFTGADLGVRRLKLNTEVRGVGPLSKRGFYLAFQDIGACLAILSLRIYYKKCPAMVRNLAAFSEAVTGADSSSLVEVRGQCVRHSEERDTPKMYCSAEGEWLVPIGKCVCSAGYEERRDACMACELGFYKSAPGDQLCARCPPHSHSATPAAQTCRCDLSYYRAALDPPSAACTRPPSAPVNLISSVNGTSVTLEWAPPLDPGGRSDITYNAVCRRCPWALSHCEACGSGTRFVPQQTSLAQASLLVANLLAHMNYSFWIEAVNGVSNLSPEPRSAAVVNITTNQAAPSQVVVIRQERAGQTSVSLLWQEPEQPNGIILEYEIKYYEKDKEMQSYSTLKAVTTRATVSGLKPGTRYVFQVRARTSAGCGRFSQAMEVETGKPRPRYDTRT
Procedure: as §1

[4] = target: T4, mouse EphA2 extracellular region-Fc-His protein (mouse, UniProt Q03145 26-538)
T4 construct: extracellular domain; Cloned into a pcDNA 3.1 vector separately from the other mouse Eph receptors; not shown: Fc; histidine tag
T4 sequence (Q03145 26-538): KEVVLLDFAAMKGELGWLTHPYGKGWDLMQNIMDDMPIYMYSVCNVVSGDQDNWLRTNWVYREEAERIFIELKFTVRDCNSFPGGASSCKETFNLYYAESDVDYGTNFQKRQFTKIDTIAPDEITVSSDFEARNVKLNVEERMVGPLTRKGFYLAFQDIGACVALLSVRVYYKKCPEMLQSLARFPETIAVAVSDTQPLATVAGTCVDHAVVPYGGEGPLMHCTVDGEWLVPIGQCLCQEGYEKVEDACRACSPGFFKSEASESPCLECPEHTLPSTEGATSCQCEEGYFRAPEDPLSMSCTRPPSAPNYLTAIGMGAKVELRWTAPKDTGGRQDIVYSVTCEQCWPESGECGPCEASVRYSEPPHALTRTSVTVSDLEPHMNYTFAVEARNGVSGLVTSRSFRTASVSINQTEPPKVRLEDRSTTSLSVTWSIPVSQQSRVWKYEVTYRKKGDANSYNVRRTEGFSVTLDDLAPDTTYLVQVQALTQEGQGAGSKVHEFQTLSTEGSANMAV
Procedure: as §1

Measured: binding result

B1: mouse anti-EphA4 monoclonal antibody (antibody A) (antibody, mouse IgG1, kappa, V domains shown)
VH: QVQLKQSGPSLVQPSQSLSITCTVSGFSLTRYGVHWVRQSPGKGLEWLGVIWRGGSTDYNAAFMSRLSITKDNSKSQVFFKMNSLQADDTAIYYCAKESLFGVYYDYGYYSMDYWGQGTSVTVSS
VL: DIQMTQSPSSLSASLGERVSLTCRASQEISGYLSWLQQKPDGTIKRLIYAASTLDSGVPKRFSGSRSGSDYSLTISSLESEDFADYYCLQYASYPLTFGAGTKLELKR
notes: purified from hybridoma supernatant
no binding (tested: 10 µg/mL): all assays above
